Measurements: the NTF2 design screens of Basanta et al. (2020)

Test: protease stability score; higher = more stable; yeast display proteolysis, trypsin and chymotrypsin;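 further: relative to predicted unfolded state with 0 unfolded-like and 1 meaning tenfold more protease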

## TEEERLHHELAKLMIHLMHTGDFDKLIKLVDPHAKLDEDVDGREVHVHGMEKWFEYLKEKFERIKNITIHIRDWRVYNGRVEIHVEYDINGKHVDTTIRLDVVNGRVKRIQIEQK
  protease stability score: 2.16

## TEEERSTRIAWEIWEMVHKTGDERLIRRFADPNVRIQIGEYNHHGREELENHTKRIDHLHVQDSDVKRVHHFDGQVHIDVHEIIHLEFDGVREDIKRRAHFVVVKYDGRWYLHHVKFH
  protease stability score: 0.937

## TEEESQAREALLIVLELLRTGDWRSMEKYADPHTLQVFNGRHLHGRELFSDFLEEYERKLGVDRIRVHIHHLDVINGQLRVDTTIDYGDKHHRMIIIINKYDGRWELEQLRIT
  protease stability score: 0.341

## TEEETETRNLLELFIRSLHTGDEDLTKRLLDPNVRLELGEWEAHGRESVSEVLRLLWELLGVKHIEHHVHDMRVFNGRVHADTRVIMVFDGREHRIETELIVVKIDGRWFIKSIHIR
  protease stability score: 1.61

## TEEETRLREFMDRLLKIITTGDEKRFKDLADPHVRLFIDGVTIHGRDEAHEMWEIFGMKVKSTHVHEIHIQGDKVNIDTRLSGHFNGRDHIWEAHIYVVKIDGRWILEYIEIR
  protease stability score: 1.94

## TEEHDEAHEVLKIFLEIHETGDEDDMKRLADPHARLNIGDKEYHGWKHFIEWLHKIKNVTSEIHHVHVYNGKVKTEVDLHVNGQDVKIILIMEKINGRWILQSVEVR
  protease stability score: 1.29

## TEEHEDIMHFILEWTNSLLTGDFKRVKEMADPHVRVLIVIGDKELHLHGREWILKRTHDIVREMRVEIILHHVDSQGNFAHVDSTLRIEVDGVRFERKTRIHMDIVNGKLKSHEHRIE
  protease stability score: 1.29

## TEEHEEARRAMKIIVDLLDTGDWKTISRYFDPNVRFEVGDKTYHGREEVLNRFIELGHSNIDVKLHHMELYGDKVVIDSRMNVDGRTHEIEWHSRKYNGRWRLHELHVR
  protease stability score: 1.12

## TEEHEKSEIAVELIIRTLVTGDEELMNKLIDPHVRIEFENRELVGRETYTKIYSRELRELGWEFVTTELRHIETQGEKVELQGDLVINGKRIKVHLYFHKYNGVWFLKRVHYE
  protease stability score: 1.19

## TEEHELFEKLARLIIKWLHTGDEERINEYADPNYRTHIGDKTVIGREEREKLIRWLLEHMRIDHIELKDIRVINGKVEIDGKIHGQINGQEVTRHSIIYLIFVDGVIKHISIEWR
  protease stability score: 1.35

## TEEHEVALRFWRMFLEAITTGDEKRIKELLDPHVQIEINGKHLHGMETLIHRINEIRETWKHVEIKTVEFYNGQIHSHFRVHYVFHVNGKEIERDTDVLLILTKVDGRWHIKSIHIH
  protease stability score: 2.52

## TEEHHFAERVVREWLKLYYTGDEERNETLADPNVKLDVNGRHYHGRESVSEFLREVYEHWRIREFHIHEFDVFNGVSHVDGELILEINGQKHRYRVRIIIVVINGRLKHIELNQV
  protease stability score: 1.56

## TEEHKFVKDFFIHMIRAWITGDEKELHRLFDPHTKVRIGDYVSHGMERTLEIWHKLWKELGFKHLEVREVRAQGDKSHTDVVYHVDGREKKVHIELEVFNGKATHLELDEK
  protease stability score: 0.519

## TEEHRATHDYVELLIRAARTGDEDIWKTMFDPDDKLVINGRTHHGREEAVRLLREIRIQIDHVDLREVRVYDGVVEIHTHTELRIIQGDKHLEIRTDQEVHILKIDGRWSNSIVIIH
  protease stability score: 1.06

## TEEHREIKESVEQWHKDLHTGNEEMLVRLMDPRMRLQIGDKTLHGREEATRWAREFHKRYDHIHDFKIKDYDHYGNYIIIIGTLDGIVDGQRVRTDVRLIFVKVNGRWTIESEEHE
  protease stability score: 0.346

## TEEKEDKDRWYEEVLRAVLTGDFHFLSRLADPDVRVEYGDKEHVGREEVSRFWQEFFERIKNVTIELHDYKVQGDKIHWLINLRFNGREHIVHIELIIIDGRIHEIRVQIR
  protease stability score: 2.02

## TEEKEEIDHAFELIWKAIDTGDEKFMTEQADPHTLTILVVDGQEIRLHGMEEFVRTFRELGIKHVRLEDIRIQGNKVEIHIRTNFNGRESEMRVHMEKVDGRWVLRSHRVIFK
  protease stability score: 1.36

## TEEKHELEKLAKIMFEIIETGDEKTWDELLDPNMRSDVNGVENIGREKVDKAILHYIKRIPNVRIQFTDMHIQGDKVIIRTEVHIGDYREELIIEVVVVNGRFKSFRLTLRRE
  protease stability score: 1.22

## TEEKHMVLKIMEQVLQKWVTGDEDVLDHLLDPDDRLHLLQGDKFVEYHGWEEANKAWNEMRITHIELHDIRAQGDKVTSDGTLDGHFNGRRTRVRVRVHLIIVNGRLKEVELQLH
  protease stability score: 0.924

## TEELEELEKMLELVLRSFHTGDEHLLERLADPHAKYHFNGKNLHGWDKLSHLWRKAGVEKVESRIRDLELQGDYVNTDVEMRYNGRTEEVEFRVKKIDGRWIIKEIIIR
  protease stability score: 0.809

## TEEQEESTRAYEEILQYIRTGDERQMTKYADPHVKLIFNGKEIHGREMFVELVKQYGIDHHHIHNWDFINGRVRMETHVRQGDKHDNAHIDMTKFDGKWIVRLFVFV
  protease stability score: 0.856

## TEEQEIIQKFLDEMMEYLETGDEHSLRRLADPHARWDVNGREYHGRELFITFFSELTHKLGWTIQKIEIESKRRVGEYVSFRMTIHSEVDGRHKVIIYNFFVFKVNGKWFLKSFKEE
  protease stability score: 1.47

## TEEQHEARHLFQLWVYSVITGNEHILHNLVDPHYLLDVGDYHVHGREDTLKVLLEARVEDFRVRDVRVYDGRLESDIEFTGHFNGRKINNKVEMTQEKIDGRWYLKRTKVT
  protease stability score: 1.77

## TEEQTHLIRLIEQFVRDEITGNWKSVLKLLDPEVKVILKINGREIHLHGREEITRWVHEWVRHIRVFIEIHHSRAFDGVVEMDTRIIIDIDGVHLSQETRINIYVVDGVLKSMEIHVK
  protease stability score: 1.65

## TEEREHDHRIFNLFLHWWMTGNEEEIHKYIDPNVRMRLDVNGVEIRDVGREMVMEMLRILYEFLGIDVSRIHSHDTQGDKVVLHGRNHVNGRDIEVHIEWKVINGKLKEVRIEIRER
  protease stability score: 1.57

## TEERKEMEEAWDRFVHNIHTGDEHSLLKLVDPHVRVQIGDKEVHGWRYLLQLLRDIITKVKNLTVDLRIEDERMIGNYIELEVILVINFENRYHFIRYHVRHEKVDGKWHLKEISRD
  protease stability score: 1.08

## TEESQIALEVLIKTARNKYTGDEDSVRHMADPNVQLHFDGQEIHGMDIIRKMIKHIRIDIEDSRSRDHHVQGDKIHDQTEVVLLIEYNGVHIRRQVRVHIHIWKINGRWILHSEIFE
  protease stability score: 1.41

## TEEVHRYKNMLELFDHAVRTGNEDLLKILFDPNTRIEVGEYHNHGWEAIEFFLKRVDHEHIEDSKLTSHHVQGNYLESHGHMHATLHFNGKELRIHTHVRWHLDKFNGRWVIHSIIIN
  protease stability score: 1.33

## TEEYRHVEEVIRMTFELLRTGNEQELEDRADPHAKSNVNGQEIHGRERFTRWFLEMITHLGVKHVRVRHYTVVNGRVIVHLEFDFDGVKIDYTVVIWKINGKWFIKISHEEHH
  protease stability score: 2.09

## TEFEQEVERMIRMWRHLYETGDEKTLSHLVDPNVRVIVDGKHIHGREQVVNEIRRAHIVDDFEIRLEDTKYFEGRAVFTGIIREHGHVDGRTVHKSTKVEIDVVKVDGQWLIHRINFH
  protease stability score: 1.54

## TEHDEDLDRWYDVLKHVLHTGDEEAKAKMVDPHVREDVNGQELHGRDDVRRLDRELGVNHFVLRVERLNIQGNKITMRGTLELTVGDKTERRHVIIHMIKIDGKWFTHHEQIR
  protease stability score: 1.04

## TEHDHDTERAFKEWFDVVRTGDFHRLERMLDPNVLSRIDGKLIHGRERLLKFWQEYLEHLGANHHEIHHVDIQGDKINIDIRVEYGDKRFTVHVHASKINGQWRVHENEKQ
  protease stability score: 1.02

## TEHDQVLLQLSQELFHSVLTGDFDLWTKLMDPNVRVHIISEDEELHRVGWETMIRWLRRFLEELRIHSMRIRRVHHVDGVAHEDGELDGIVDGQRVITRVTLHVITINGRWHSVHLERL
  protease stability score: 0.801

## TEHEEISHRLMELLKEALQTGDEEHIRDLADPHVRVIVNGKNIHGREEVHMWLLILNTKFKGLTLRVHHVDIQGEKIILDTRIHVNGRSTTSHVELYVVDGVLKRAHLHIE
  protease stability score: 1.45

## TEHEEMIREALEFLIRLLETGDFERLHHLADPNVRLEQGDKEFIGREEWLRLFTEEIRQYKGITIHIHEVEVVDGRVYINGTVHQGDKIRRVIWVIIKIDGKWRIHSVHIR
  protease stability score: 2.19

## TEHEHEAEDALEKSIRHFHTGDEDTLKHLMDPNVRNDIDGKHIHGREDVLDIMIRIPNVRSEIDDVRVRHVNGRIEVIVDGILYFNGRTVEVRVILIMQKINGKWYITSLEIRRR
  protease stability score: 0.628
